Assay results published in the nanobody polyreactivity screen of Harvey et al. (2022).

Experiment: yeast display, Sf9 membrane polyspecificity reagent, FACS + sequencing; frameworks hold sequencing errors
Outline: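 After 36–48 hours of galactose induction, yeast (Saccharomyces cerevisiae BJ5465) displaying a synthetic nanobody library were stained at 4 °C for 1 hour with 10% biotinylated, detergent-solubilized Sf9 membrane reagent. Streptavidin microbeads enriched the stained cells before FACS sorting into low and high (top ~1%) gates on anti-HA and streptavidin fluorescence. Each clone's polyreactivity label reflects its gate of origin.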

| Sequence | polyreactivity (PSR sort gate) |
| --- | --- |
| QVQLVESGGGLVQAGGSLRLSCAASGSIFLIYAMGWYRQAPGKERELVATINRGDNTYYADSVKGRFTISRDNAKNTVYLQMNSLKPEDTAVYYCAADVPWGWWDSDFSDNYYWGQGTQVTVSS | low polyreactivity |
| QVQLVESGGGLVQAGGSLRLSCAASGSIFLKYAMGWYRQAPGKERELVATISRGGSTNYADSVKGRFTISRDNAKNTVYLLMNSLKPEYTAVYYCAAKYGRPYGTYGYWGQGTQVTVSS | high polyreactivity |
| QVQLVESGGGLVQAGGSLRLSCAASGSIFLNNAMGWYRQAPGKERELVAAITRNVGSTYYADSVKGRFTISRDNAKNTVYLQMNSLKPEDSAVYYCAADRRRRYDYWGQGTQVTVSS | low polyreactivity |
| QVQLVESGGGLVQAGGSLRLSCAASGSIFLNYAMGWYRQAPGKERELVAGISNGGSTNYADSVKGRFTISRDNAKYTVYLQMNSLKPEDTAVFYCARPGYKSRGKRFDYWGQGTQVTVSS | low polyreactivity |
| QVQLVESGGGLVQAGGSLRLSCAASGSIFLPYAMGWYRQAPGKERELVAAITRRGTSTYYADSVKGRFTISRDNAKNTVYLQMNSLKPEDTAVYYCAAEIKYWYSAYAYGYWGQGTQVTVSS | high polyreactivity |
| QVQLVESGGGLVQAGGSLRLSCAASGSIFLPYAMVWSRQAPGTERELVAAITWGGDSTYADSVKGRFTISRDNAKNTVYLQMNSLKPEDTAVYYCAAGAGFESDYWGQGTQVTVSS | low polyreactivity |
| QVQLVESGGGLVQAGGSLRLSCAASGSIFLRNAMGWYRQAPGKERELVAAITKRGGSTYYADSVKGRFTISRDNAKNTVYLQMNSLKPEDTAVYYCNVDTYANTAFVRKPMYYWGQGTQVTVSS | low polyreactivity |
| QVQLVESGGGLVQAGGSLRLSCAASGSIFLSNAMGCYRQAPGKEREIVADIDWTGGDTYYADSVKGRFTISRDNAKNTVYLQMNSLKPEDTAVYYCAADYGYRNLLTEYSYWGQGTQVTVSS | low polyreactivity |
| QVQLVESGGGLVQAGGSLRLSCAASGSIFLSNMGWYREAPGKQRELVAAITIGGSTDYADSVKGRFTISRDNAKNTVFLQMNSLKPEDTAVYYCNADNPYSDGADSLGNYWGHGTQVTVSS | low polyreactivity |
| QVQLVESGGGLVQAGGSLRLSCAASGSIFLSYAMGWDRPAPGKVRELVADISRSGGSTYYADSVKGRFTISRDNAKNTVYLQMNSLKPEDTAVYYCAVYIAVYEGDYWGQGTQVTVSS | low polyreactivity |
| QVQLVESGGGLVQAGGSLRLSCAASGSIFLSYDMGWYRQAPGKERELVAAITQSGGSTYYADSVKGRFTISRDNAKNTVYLQMNSLKPEDTAVYYCAKEGDSGYWFDYWGQGTQVTVSS | low polyreactivity |
| QVQLVESGGGLVQAGGSLRLSCAASGSIFLTNAMGWYRQAPGKEREFVAAIDWGGTITYYADSVKGRFTISRDNAKNTVYLQMNSLKPEDTAVYYCAADPTYPYGYWGQGTQVTVSS | low polyreactivity |
| QVQLVESGGGLVQAGGSLRLSCAASGSIFLVNAMGWYRQAPGKERELVAAITWIGGSTYYADSVKGRFTISRDNAKNTVYLQMNSLKPEDTAVYYCAAYGKRLGGGGYYWGQGTQVTVSS | high polyreactivity |
| QVQLVESGGGLVQAGGSLRLSCAASGSIFLVNDKGWYRPAPGKERELVAAISSRGGSTYYADSVKGRFTISRDNAKNTVYLQMNSLKPEDTAVYYCAALQRPLEGLLYYYWGQGTPVTVSS | low polyreactivity |
| QVQLVESGGGLVQAGGSLRLSCAASGSIFLVYAMGWYRQAPGKERELVAAIDWSDTDTYYADSVKGRFTISRDNAKNTFYLQMNSLKPEDTAVYYCAADHVGVDFEYWGQGTQVTVSS | low polyreactivity |
| QVQLVESGGGLVQAGGSLRLSCAASGSIFLVYAMGWYRQAPGKERELVAAISRSGRTYADSVKGRFTISRDNAKNTVYLQMNSLKPEDTAVYYCNKLAVRPGYGSTYDYWGQGTQVTVSS | high polyreactivity |
| QVQLVESGGGLVQAGGSLRLSCAASGSIFLVYAMGWYRQAPGKERELVAVIRWRDGSTYYADSVKGRFTISRDNAMNTVYLQMNSLKPEDTAVYYCAADGVIFEYDYWGQGTQVTVSS | low polyreactivity |
| QVQLVESGGGLVQAGGSLRLSCAASGSIFLVYSMGWYRQAPGKERELVAGITSDDSTNYADSVKGRFTISRDNAKNTVYLQMNSLKPEDTAVYYCAKDSLVWYIVDLGYWGQGTQVTVSS | low polyreactivity |
| QVQLVESGGGLVQAGGSLRLSCAASGSIFLWYTMGWYRQAPGKERELVAAISSSGGSTYYADSVKGRFTISRDNAKNTVYLQTNSLKPEDNAVYYCAAAKLFYYGRKYGKYDYWGQGTQVTVSS | high polyreactivity |
| QVQLVESGGGLVQAGGSLRLSCAASGSIFLYNAMGWYRPAPRKERELVAAISKSGGSTYYADSVKGRFTISRDNAKNTVYLQMNSLKPEDSAVYYCAAGYGRRIRYGSDYDYWGQGTQVTVSS | low polyreactivity |
| QVQLVESGGGLVQAGGSLRLSCAASGSIFLYNAMGWYRQAPGKERELVAAISASGGSTYYADSVKGRFTISRDNAKNTVYLQMNSLKPEDTAVYYWAAQYSDYDGFTWPLPPRYDYWGQGTQVTVSS | high polyreactivity |
| QVQLVESGGGLVQAGGSLRLSCAASGSIFLYNAMGWYRQAPGKERELVADITSAGRTYYADSVKGRFTISRDNAKNTVYLQMNSLKPEDTAVYYCNKDYHYHFSWYGYWGQGTQVTVSS | low polyreactivity |

| Sequence | polyreactivity (PSR sort gate) |
| --- | --- |
| QVQLVESGGGLVQAGGSLRLSCAASGSIFLYYAMGWYRPAPGKDRELVAAIRRGGNTNYADSVKGRFTISRDNAKNTVYLQMNSLKPVDTAVYYCAAAQYSRYSRVPNYYAGTYYYWGQGTQVTVSS | low polyreactivity |
| QVQLVESGGGLVQAGGSLRLSCAASGSIFLYYAMGWYRQAPGKERELVAAITGGGGTNYADSVKGRFTISRDNAKNTVYLQMNSLKPEDTAVYYCAADTSGQFPYSYYNYDYDYWGQGTQVTVSS | low polyreactivity |
| QVQLVESGGGLVQAGGSLRLSCAASGSIFLYYAMGWYRQAPGKERELVASISSGGSTNYADSVKGRFTISRDNAKNTVYLQMNSLKPEDTAVYYCAARPYGGGRRSIYYYWGQGTQVTVSS | high polyreactivity |
| QVQLVESGGGLVQAGGSLRLSCAASGSIFLYYVMGWYRKAPGKERELVAAITWDGGSTYYADSVKGRFTISRDNAKNTVYLQMNSLKPEDTAVYYCNKGFKLWPRYGYDYWGQGTQVTVSS | low polyreactivity |
| QVQLVESGGGLVQAGGSLRLSCAASGSIFNAMGWYRQAPGKERELVAAITSGSSTYYADSVKGRFTISRDNAKNTVYLQMNSLKPEDTAVYYCAAGSQRRYYHTNWDSFNYWGQGTQVTVSS | low polyreactivity |
| QVQLVESGGGLVQAGGSLRLSCAASGSIFNAYAMGWYRQAPGKERELVAAISKRTSYADSVKGRFTISRDNAKNTVYLQMNSLKPEDTAVYYCAKEVDEPDGYEYDYWGQGTQVTVSS | low polyreactivity |
| QVQLVESGGGLVQAGGSLRLSCAASGSIFNEYAMGCYRQAPGKERELVAAISTSGDITYYADSVKGRFTISRDNAKNTVDLQMNSLKPEDTAVYYCAAKYSLLRQYNRLDSWGQGTQVTVSS | low polyreactivity |
| QVQLVESGGGLVQAGGSLRLSCAASGSIFNGYAMGWYRQAPGKERELVADIRSGGSTYYADSVKGRFTISRDNAKNTVYLQMNSLKPEDTAVYYCAADTITDGYDYWGQGTQVTVSS | low polyreactivity |
| QVQLVESGGGLVQAGGSLRLSCAASGSIFNKYAMGWYRQAPGKERELVATISFRGGSTYADSVKGRFTISRDNAKNTVYLQMNSLKPEDTAVYYCATKSGRNSPRMDYWGQGTQVTVSS | high polyreactivity |
| QVQLVESGGGLVQAGGSLRLSCAASGSIFNRNVMGWYRQAPGKERELVAAITWSGASTYYADSVKGRFTISRDNAKNTVYLQMNSLKPEDTAVYYCAATQYYRGYDYWGQGTQVTVSS | high polyreactivity |
| QVQLVESGGGLVQAGGSLRLSCAASGSIFNRYAMGWYRPAPGKERELVAAISRSGGRTYYADSVKGRFTISRDNAKNTVYLQMNSLKPEDTAVYYCAADKYYRQHEFDYWGQGTQVTVSS | high polyreactivity |
| QVQLVESGGGLVQAGGSLRLSCAASGSIFNRYAMGWYRQAPGKERELVAAISTHTGTTYYADSVKGRFTISRDNAKNTDYLQMNSLKPEDTAGYYCAKRSRYGYGKSYDYWGQGTQVTVSS | high polyreactivity |
| QVQLVESGGGLVQAGGSLRLSCAASGSIFNRYAMGWYRQAPGKERELVAAISTHTGTTYYADSVKGRFTISRDNAKNTVYLQMNSLKPEDTAVYYCAKRSRYGYGKSYDYWGQGTQVTVSS | high polyreactivity |
| QVQLVESGGGLVQAGGSLRLSCAASGSIFNSNAMGWYRQAPGKERELVAAITGSGGRTYYADSVKGRFTISRDNAKNTVYLQMNSLKPEDTAVYYCNAVTYSRRYAYYDWGQGTQVTVSS | high polyreactivity |
| QVQLVESGGGLVQAGGSLRLSCAASGSIFNVNTMGWYRQAPGKERELVAAISYSGGSTYYADSVKGRFTISRDTAKNTVYLQMNSLKPEDTAVYYCAAESYIEYYLKYDYWGQGTQVTVSS | low polyreactivity |
| QVQLVESGGGLVQAGGSLRLSCAASGSIFNVYAMGWYRQAPGKERELVAAISDGDGSTFYADSVKGRFTISRDNAKNTVYLQMNSLKPEDTAVYYCAKDYRWDSKFDYWGQGTQVTVSS | low polyreactivity |
| QVQLVESGGGLVQAGGSLRLSCAASGSIFNVYAMGWYRQAPGKERELVAAISDGDGSTFYADSVKGRFTISRDNAKTTVYLQMNSLKPEDTAVYYCAKDYRWDRKFDYWGQGTQVTVSS | low polyreactivity |
| QVQLVESGGGLVQAGGSLRLSCAASGSIFNVYGMGWYRQAPGKERELVAAISKSGTSTSYADSVKGRFTISRDNAKNTVYLQMNSLKPEDTAVYYRNAGYRTWWGKKYDYWGQGTQVTVSS | low polyreactivity |
| QVQLVESGGGLVQAGGSLRLSCAASGSIFNWNAMGWYRQAPGKERDLVATITITTSTNYADSVKGRFTISRDNAKNSVYLQMNCLKPEDNGVYYCNAGDPYRYLDDYNYWGQGTKVTVSS | low polyreactivity |
| QVQLVESGGGLVQAGGSLRLSCAASGSIFNWYTMGWYRQAPGKERELVAVITQSGGSTYYADSVKGRFTISRDNAKNTVYLQMNSLKPEDTAVYYCAKRYWSYQYGYRMYYWGQGTQVTVSS | high polyreactivity |
| QVQLVESGGGLVQAGGSLRLSCAASGSIFNYNAMGWYREAPRKERELVAAITWRGGTTSYADSVKGRFSISRDNAKNTVYLQMNSLKPEDTAVYYCNAYQWRHRYTMYYWGQGTQVTVSS | high polyreactivity |
